Measured values taken from publication PMC9514091 (2022).

B1: host PD-1-Fc fusion protein (Fc fusion)
chain: LDAPSRPWSPLTFSPARLTVPEGANATFTCSFSSKPEHFVLNWYRMSPSNQTDKLAAFPEDRSQPGRDRRFHVTPLPGGRHFHMSIMAAQRNDSGVYFCGAIYLPPKTQINESRPAELT
B2: host PD-L1-Fc fusion protein (Fc fusion)
chain: FTITVPKDLYVVEYGSNVTLECRFPVDKQLNLLALVVYWEMEDKKIIQFVNGEEDLNVQHSSYNQRALLLKNQLPLGKAALQITDVKLQDAGIYCCLISYGGADYKRITLKVNASYRKINQTISVDPVTSEHELMCQAEGYPEAEVIWTSSDHRVLSGKTTITSSKREEKLFNVTSTLRINTTANEIFYCIFRRLGHEENSTAELV

Tests used:
De2-Fc fusion protein = De2-Fc fusion protein (Tursiops truncatus gammaherpesvirus 1); assay: SPR
[1] = molecular target: B1; assay: SPR

Binder	koff (De2-Fc fusion protein) [s⁻¹]	koff [1] [s⁻¹]
B1	0.000696	
B2		0.000488
